Measured values published in the supplement of paper PMC10567573.

B1: VDR (parent)
chain: LIKFQVGLKKLNLHEEEHVLLMAI
B2: C9orf9 (parent)
chain: LTKASLKPRGCSKPPWRPPGGKL

Variants of: B1
Test: protein stability index of a GFP-peptide fusion (GPS, HEK-293T) (PSI 1-6); higher = more stable
Conditions: c terminus: a fixed tail appended
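Further: lentivirally expressed fusions sorted by FACS into six bins by GFP to DsRed ratio, PSI derived from sequencing read proportions per bin multiplied by bin number.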

Protein stability index: each site, then its substitutions
L11: E 3.86; F 2.14; K 2.98; M 2.93; Y 2.28; I 3.2; S 2.29; C 3.35; P 2.34; W 2.1; T 2.03; R 1.3; A 2.56; Q 2; D 2.78
E17: P 2.91; M 2.37; F 1.95; N 2.3; D 2.28; Q 2.7; R 3.74; L 1.8; H 2.34; Y 3.14
N12: G 2.62; F 2.51; T 2.92; S 2.5; E 3.9; I 2.19
K9: H 1.59; T 3.39; M 3.2; F 3.38; C 5.08; R 2.63; L 2.97; G 3.2; I 1.03; D 2.79; S 3.17; V 3.6; N 1.61; Q 3.62; P 3.16; A 2.27; Y 4.29
K10: N 1.9; C 4.27; E 2.11; L 4.27; H 1.38; F 3.36; P 3.19; T 2.23; A 3.24; M 2.47; D 3.4; V 1.83
M22: N 2.99; H 2.06; A 3.3; F 2.88; C 2.61; G 2.01; W 2.81; E 1.15; K 1.7; D 1.17; S 1.68; P 2.09; Q 2.36; Y 2.25; R 1.33; T 1.84; L 2.66; I 2.91
L20: V 1.01; G 4.03; T 2.4; Y 2.9; E 2.24; H 1.86; Q 1.81; M 2.15; K 1.91; I 2.83; C 3.71; P 2.31; A 2.05; D 1.19; F 2.29
H18: A 4.04; I 2.93; M 3.56; T 1.12; N 3.21; K 3.13; E 2.33
L8: Q 1.56; T 2.62; M 3.04; P 2.31; W 1.89; S 3.06; K 2.85; N 2.82
L21: G 2.76; S 2.08; V 4.64; Y 2.92; Q 2.02; M 2.45; K 3.43; C 3.18; N 1.68; D 1.85; P 1.69
H14: Q 2.43; I 2.28; N 3.26; C 2.28; D 2.21; P 2.53; Y 2.93; G 4.41; E 4.65; K 2.66
I24: Q 2.48; E 2.55; P 1.21; C 3.08; K 2.69; S 1.97; A 2.8; F 3.74; Y 3.26; D 1.87; W 2.33; N 2.74; R 2.35; T 1.85
L13: M 3.14; K 3.2; E 1.4; G 1.88; D 1.74; V 3.02; F 1.7; Q 3.27; S 3.54; W 2.81; H 2.3; I 2.39; N 3.72; T 3.36; R 3.69; P 2.73
V19: T 2.52; A 1.58; R 2.89; H 3.1; D 3.54; Q 3.04; F 2.52; N 1.59; I 1.93; C 1.63; W 1.04; K 1.99; G 1.4
E16: R 2.24; K 1.77; N 2.09; L 3.15; Y 1.43; Q 1.57; T 2.81; C 3.87; I 1.97; P 3.81
E15: S 2.96; V 2.61; Y 1.94; L 3.71; F 2.77; C 1.99; P 2.38; Q 2.77; T 3.96; A 2.52; K 2.5; W 3.87; G 2.92
A23: D 3.29; E 2.23; Y 3.16; V 1.85; L 3.49; R 2.37; H 2.49

Variants of: B2
Test: as above
Conditions: c terminus: native

Protein stability index of substitutions, site by site:
T2: H 2.12; C 1.96; R 1.85; K 2.28; L 2.26; Q 1.32; F 1.95; S 2.59; V 1.58; A 1.67; I 1.86; P 2.72; G 1.36; N 2.21; D 1.78
S5: F 2.03; P 2.21; D 1.19; A 2.57; G 1.24; V 2.5; L 2.21; H 1.55; W 3.95; N 1.99; C 1.86; K 2.43; I 2.9; E 1.81; Q 3.27; M 1.83; T 2.08
L1: R 2.13; V 1.8; Q 3.17; M 1.86; N 3.8; E 2.09; H 1.82; G 2.5; K 1.85; I 1.71; T 1.85; F 2.29; P 2.06; D 1.76; Y 2.31; S 2.78; W 1.89
R9: S 1.95; C 3.36; G 1.37; I 1.85; Y 3.3; P 1.34; M 2.33; A 1.7; V 2.91; H 1.35; Q 2.68; T 1.45; F 1.15; N 2.07; L 2.96; W 2.31; E 1.9
P8: Y 2.15; Q 4.76; H 1.65; M 2.53; A 3.56; W 4.77; L 2.77; F 2.51
G10: A 2.74; C 1.97; D 2.36; F 1.91; E 2.18
K7: F 1.78; H 2.31; N 2.32; G 1.51; L 1.69; I 1.56; S 1.53; A 2.72; C 1.68; E 1.51; M 2.66; T 2.25; V 2.25
L6: R 2.17; F 2.35; P 1.9; I 1.37; D 1.5; H 1.89; Y 2.04; T 1.87; S 2.47; Q 4.53
A4: W 2.44; L 1.08; G 1.36; M 1.69; S 2.02; F 1.75; C 1.63; D 1.25; I 1.61; H 1.96; Q 1.65; P 3.55; K 1.8; N 2; T 1.78; V 1.58
K3: A 1.38; L 2.36; P 2.66; D 2.39; N 2.08; T 2.19; V 2.86; H 2.28; S 1.91; G 1.74; Y 2.73; Q 2.6; E 1.97; F 1.51
